# Test results from patent US11882829B2, “Fusion proteins and methods for stimulating plant growth, protecting plants, and immobilizing bacillus spores on plants” (Spogen Biotech Inc., priority 2013, dated 2024).
# System: Corn
# Experiment: Corn growth after BEMD PhoA4 spores with or without polyphosphate (Example 11)
# Format: in vivo
# Conditions: Additive: Polyphosphate 0.5 mg/pot; corn height at two weeks
row,Molecule,"Growth, Comparison to Water [%]"
1,Polyphosphate,110.8

# System: corn plants at the V5 stage
# Experiment: Foliar application to corn under heat and water stress (Example 38)
# Format: in vivo
# Conditions: not given
row,Molecule,effect on growth of stressed corn
1,O=C(O)c1ccccc1O [Salicylic Acid],positive responses
2,"c1ccc2snnc2c1 [Benzothiadiazole (BTH), Benzothiadiazole]",positive responses

# Same assay, conditions: foliar spray 1 ml/plant; 32.2° C., watering once per week; compared to water-only control
row,Molecule,Change in plant Height over 2 week stress [%]
1,O=C(O)c1ccccc1O [Salicylic Acid],5.8
2,"c1ccc2snnc2c1 [Benzothiadiazole (BTH), Benzothiadiazole]",7.3

# System: sigma K driven genes in Bacillus cereus family members
# Experiment: not given
# Conditions: microarray data from Bergman et al., 2008; late sporulation, 300 minutes; cited from earlier work
row,Molecule,Relative Expression (Fold increase in mRNA) [Fold]
1,"InhA (SEQ ID NO: 100): InhA promoter (B. thuringiensis Al Hakam) (nucleic acid, listed as Bacillus thuringiensis) DNA: TATCACATAACTCTTTATTTTTAATATTTCGACATAAAGTGAAACTTTAATCAGTGGGGGCTTTGTTCATCCCCCCACTGATTATTAATTGAACCAAGGGATAAAAAGATAGAGGGTCTGACCAGAAAACTGGAGGGCATGATTCTATAACAAAAAGCTTAATGTTTATAGAATTATGTCTTTTTATATAGGGAGGGTAGTAAACAGAGATTTGGACAAAAATGCACCGATTTATCTGAATTTTAAGTTTTATAAAGGGGAGAAATG",34.25
2,"Sigma K (SEQ ID NO: 99) (nucleic acid, listed as Bacillus anthracis) DNA: TATATCATATGTAAAATTAGTTCTTATTCCCACATATCATATAGAATCGCCATATTATACATGCAGAAAACTAAGTATGGTATTATTCTTAAATTGTTTAGCACCTTCTAATATTACAGATAGAATCCGTCATTTTCAACAGTGAACATGGATTTCTTCTGAACACAACTCTTTTTCTTTCCTTATTTCCAAAAAGAAAAGCAGCCCATTTTAAAATACGGCTGCTTGTAATGTACATTA",64
3,"Rhamnose Promoters (SEQ ID NO: 96): Rhamnose promoter (B. thuringiensis Al Hakam) (nucleic acid, listed as Bacillus thuringiensis, expressed or natural sequence) DNA: ATTCACTACAACGGGGATGAGTTTGATGCGGATACATATGAGAAGTACCGGAAAGTGTTTGTAGAACATTACAAAGATATATTATCTCCATCATAAAGGAGAGATGCAAAG",75.69
4,"CotY (SEQ ID NO: 97) (nucleic acid, listed as Bacillus anthracis) DNA: CGCGCACCACTTCGTCGTACAACAACGCAAGAAGAAGTTGGGGATACAGCAGTATTCTTATTCAGTGATTTAGCACGCGGCGTAACAGGAGAAAACATTCACGTTGATTCAGGGTATCATATCTTAGGATAAATATAATATTAATTTTAAAGGACAATCTCTACATGTTGAGATTGTCCTTTTTATTTGTTCTTAGAAAGAACGATTTTTAACGAAAGTTCTTACCACGTTATGAATATAAGTATAATAGTACACGATTTATTCAGCTACGTA",79.21
5,"YjcB (SEQ ID NO: 94): YjcB promoter (B. thuringiensis serovar kurstaki str. HD73) (nucleic acid, listed as Bacillus thuringiensis, expressed or natural sequence) DNA: ATATATTTTCATAATACGAGAAAAAGCGGAGTTTAAAAGAATGAGGGAACGGAAATAAAGAGTTGTTCATATAGTAAATAGACAGAATTGACAGTAGAGGAGA",70.56
6,"BxpB/ExsFA (SEQ ID NO: 95): BxpB promoter (B. thuringiensis Al Hakam) (nucleic acid, listed as Bacillus thuringiensis) DNA: AAACTAAATAATGAGCTAAGCATGGATTGGGTGGCAGAATTATCTGCCACCCAATCCATGCTTAACGAGTATTATTATGTAAATTTCTTAAAATTGGGAACTTGTCTAGAACATAGAACCTGTCCTTTTCATTAACTGAAAGTAGAAACAGATAAAGGAGTGAAAAACA",30.25
7,"BclA (SEQ ID NO: 85) (nucleic acid, listed as Bacillus anthracis) DNA: TAATCACCCTCTTCCAAATCAATCATATGTTATACATATACTAAACTTTCCATTTTTTTAAATTGTTCAAGTAGTTTAAGATTTCTTTTCAATAATTCAAATGTCCGTGTCATTTTCTTTCGGTTTTGCATCTACTATATAATGAACGCTTTATGGAGGTGAATTTATG",77.44
8,"ExsY (SEQ ID NO: 91): ExsY promoter (B. thuringiensis serovar konkukian str. 97-27) (nucleic acid, listed as Bacillus thuringiensis, expressed or natural sequence) DNA: TAATTCCACCTTCCCTTATCCTCTTTCGCCTATTTAAAAAAAGGTCTTGAGATTGTGACCAAATCTCCTCAACTCCAATATCTTATTAATGTAAATACAAACAAGAAGATAAGGAGTGACATTAA",32.49
9,"YjcA (SEQ ID NO: 93): YjcA promoter (B. thuringiensis serovar kurstaki str. HD73) (nucleic acid, listed as Bacillus thuringiensis, expressed or natural sequence) DNA: TTAATGTCACTCCTTATCTTCTTGTTTGTATTTACATTAATAAGATATTGGAGTTGAGGAGATTTGGTCACAATCTCAAGACCTTTTTTTTAAATAGGCGAAAGAGGATAAGGGAAGGTGGAATTA",64
10,"BclA adjacent US Glycosyl transferase promoter 1 (SEQ ID NO: 101): BclA cluster glycosyl transferase operon 1 promoter (nucleic acid, listed as Bacillus thuringiensis, expressed or natural sequence, BclA cluster glycosyl transferase operon 1 promoter) DNA: ATTTTTTACTTAGCAGTAAAACTGATATCAGTTTTACTGCTTTTTCATTTTTAAATTCAATCATTAAATCTTCCTTTTCTACATAGTCATAATGTTGTATGACATTCCGTAGGAGGCACTTATA",72.25
11,"BclC (SEQ ID NO: 98) (nucleic acid, listed as Bacillus anthracis) DNA: TGAAGTATCTAGAGCTAATTTACGCAAAGGAATCTCAGGACAACACTTTCGCAACACCTATATTTTAAATTTAATAAAAAAAGAGACTCCGGAGTCAGAAATTATAAAGCTAGCTGGGTTCAAATCAAAAATTTCACTAAAACGATATTATCAATACGCAGAAAATGGAAAAAACGCCTTATCATAAGGCGTTTTTTCCATTTTTTCTTCAAACAAACGATTTTACTATGACCATTTAACTAATTTTTGCATCTACTATGATGAGTTTCATTCACATTCTCATTAGAAAGGAGAGATTTAATG",14.44
12,"BclA adjacent DS Glycosyl transferase promoter 2 (SEQ ID NO: 102): BclA cluster glycosyl transferase operon 2 promoter (nucleic acid, listed as Bacillus thuringiensis) DNA: ACATAAATTCACCTCCATAAAGCGTTCATTATATAGTAGATGCAAAACCGAAAGAAAATGACACGGACATTTGAATTATTGAAAAGAAATCTTAAACTACTTGAACAATTTAAAAAAATGGAAAGTTTAGTATATGTATAACATATGATTGATTTGGAAGAGGGTGATTA",73.96
